This is an account of results in patent publication US8343500 (APITOPE TECHNOLOGY BRISTOL, dated 2013).

The target in one assay is HLA-DQ6 (human, UniProt P01909 24-254; P01920 33-261). The experiment in a line: cell-based or functional assay.
The next assay addresses T1, HLA-DR2b (human).
T1 construct: whole, on cells; also called DR2b [DRB1*1501]; HLA:DR2 (DRB1*1501)
As to the kind of experiment: conclusion of Example 6; tolerance induction in HLA:DR2 (DRB1*1501) transgenic mice, no direct binding assay.

B1: MBP 30-44 (peptide)
peptide: PRHRDTGILDSIGRF
For B1, the proliferation of T-cell clone MS 49:D3 ([3H]-thymidine, stimulation index), against Mgar control cells in the assay with HLA-DQ6 was found to be 1.5 fold.

B2: MBP 140-154 (peptide)
peptide: GFKGVDAQGTLSKIF
notes: also called ATX-MS-06; APITOPE MS6
As to B2, the binding result in the assay with HLA-DR2b is recorded as “binds”.

B3: MBP 130-144 (peptide)
peptide: RASDYKSAHKGFKGV
For the molecule B3, the “proliferation of T-cell clone MS17:A2 ([3H]-thymidine, stimulation index), against Mgar control cells” value with HLA-DQ6 is 3.24 fold.
